In US20250026856A1 (UCB, published 2025):

T1: human transglutaminase type 2 (TG2) (human, UniProt P21980 2-687)
T1 sequence: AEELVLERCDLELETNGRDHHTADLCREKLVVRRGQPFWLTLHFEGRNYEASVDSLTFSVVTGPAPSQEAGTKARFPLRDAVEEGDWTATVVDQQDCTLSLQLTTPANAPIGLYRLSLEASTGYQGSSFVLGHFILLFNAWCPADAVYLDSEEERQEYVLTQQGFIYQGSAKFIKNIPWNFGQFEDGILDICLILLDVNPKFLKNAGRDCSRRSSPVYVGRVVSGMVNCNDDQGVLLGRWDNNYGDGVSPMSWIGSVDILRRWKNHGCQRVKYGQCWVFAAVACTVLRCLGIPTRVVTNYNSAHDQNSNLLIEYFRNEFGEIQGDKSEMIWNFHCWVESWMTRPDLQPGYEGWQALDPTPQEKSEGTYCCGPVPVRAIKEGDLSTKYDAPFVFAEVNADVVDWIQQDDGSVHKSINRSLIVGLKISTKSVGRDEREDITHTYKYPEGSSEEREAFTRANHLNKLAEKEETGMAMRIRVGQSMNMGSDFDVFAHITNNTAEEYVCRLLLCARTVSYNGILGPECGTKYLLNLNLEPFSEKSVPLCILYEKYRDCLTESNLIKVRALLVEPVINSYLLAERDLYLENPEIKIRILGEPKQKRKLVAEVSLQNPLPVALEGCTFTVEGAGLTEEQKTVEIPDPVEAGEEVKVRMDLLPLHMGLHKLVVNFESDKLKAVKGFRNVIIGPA

B1: rbBB7 (antibody, V domains shown)
VH: EVQLLESGGRLVTPGGSLTLTCAASGIIFSSSAMSWVRQAPGKGLEWVATISSGGRSTYYPDSVKGRFTVSRDSSKNTLYLQMNSLRAEDTAVYYCAKLISPYWGQGTLVTVSS
VL: AIKMTQTPSSVSAAVGGTVTISCKASQDINSYLTWFQQKPGQPPKTLIYLTNRLMDGVPSRFSGSGSGQEFLLTISGLECDDAATYYCLQYVDFPYTFGGGTKVVVK
B2: Zampilimab (antibody, V domains shown)
VH: EVQLLESGGGLVQPGGSLRLSCAASGFTLSTHAMSWVRQAPGKGLEWVATISSGGRSTYYPDSVKGRFTISRDNSKNTLYLQMNSLRAEDTAVYFCARLISTYWGQGTLVTVSS
VL: DITMTQSPSSLSASVGDRVTITCKASQDINSYLTWFQQKPGKAPKILIYLVNRLVDGVPSRFSGSGSGQDYALTISSLQPEDFATYYCLQYDDFPYTFGQGTKVEIK

Assays:
rabbit TG2 = rabbit TG2 (rabbit); experiment: cell-based or functional assay
[1] = biological target: T1, human transglutaminase type 2 (TG2); experiment: cell-based or functional assay

Binder	IC50 against rabbit TG2 (rabbit TG2) [nM]	IC50 against human TG2 [1] [nM]
B1	8	0.3
B2	103	0.25
